# Publication PMC9974832
# “And” between values parts separate entries of the source, which are not always exact repeats. Equal values may be shown once.
# How the values were obtained:
# [1] = molecular target: pyruvate kinase (PK) M2 (PKM2) (mouse) (mouse (endogenous in isolated glomeruli)) (UniProt P52480); test: cross-linking; lysates of mouse glomeruli or HRMCs (sodium phosphate buffer pH 7.3, 0.5% Triton X-100), 0.01% glutaraldehyde 5 min 37°C, stopped with 50 mM Tris-Cl pH 8.0; 10% SDS-PAGE, blot with anti-PKM2; samples from db/m, db/db, AAV-shARAP1 mice; NG/HG, ARAP1 shRNA, ARAP1 overexpression, AG1478 in cells
# [2] = molecular target: pyruvate kinase (PK) M2 (PKM2) (human (endogenous in HRMCs)) (UniProt P14618); test: as above
# Sequence of pyruvate kinase (PK) M2 (PKM2) (mouse), P52480 1-531 (enzyme; other documents disagree on this pair) (P52480 whole entry): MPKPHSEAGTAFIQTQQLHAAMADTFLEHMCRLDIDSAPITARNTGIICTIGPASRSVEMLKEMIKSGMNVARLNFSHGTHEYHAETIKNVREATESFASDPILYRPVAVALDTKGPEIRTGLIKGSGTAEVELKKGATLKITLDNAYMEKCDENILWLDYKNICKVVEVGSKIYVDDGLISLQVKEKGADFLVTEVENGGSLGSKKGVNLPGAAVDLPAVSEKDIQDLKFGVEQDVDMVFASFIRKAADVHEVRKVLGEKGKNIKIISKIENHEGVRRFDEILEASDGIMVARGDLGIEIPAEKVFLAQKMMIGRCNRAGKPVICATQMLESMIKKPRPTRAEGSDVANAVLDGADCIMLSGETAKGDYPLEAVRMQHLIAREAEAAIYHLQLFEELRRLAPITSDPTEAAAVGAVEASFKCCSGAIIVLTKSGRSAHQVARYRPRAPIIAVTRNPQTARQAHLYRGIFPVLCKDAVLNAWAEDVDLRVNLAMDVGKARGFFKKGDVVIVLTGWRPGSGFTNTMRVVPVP
# Sequence of pyruvate kinase (PK) M2 (PKM2), P14618 1-531 (enzyme; other documents disagree on this pair) (P14618 whole entry): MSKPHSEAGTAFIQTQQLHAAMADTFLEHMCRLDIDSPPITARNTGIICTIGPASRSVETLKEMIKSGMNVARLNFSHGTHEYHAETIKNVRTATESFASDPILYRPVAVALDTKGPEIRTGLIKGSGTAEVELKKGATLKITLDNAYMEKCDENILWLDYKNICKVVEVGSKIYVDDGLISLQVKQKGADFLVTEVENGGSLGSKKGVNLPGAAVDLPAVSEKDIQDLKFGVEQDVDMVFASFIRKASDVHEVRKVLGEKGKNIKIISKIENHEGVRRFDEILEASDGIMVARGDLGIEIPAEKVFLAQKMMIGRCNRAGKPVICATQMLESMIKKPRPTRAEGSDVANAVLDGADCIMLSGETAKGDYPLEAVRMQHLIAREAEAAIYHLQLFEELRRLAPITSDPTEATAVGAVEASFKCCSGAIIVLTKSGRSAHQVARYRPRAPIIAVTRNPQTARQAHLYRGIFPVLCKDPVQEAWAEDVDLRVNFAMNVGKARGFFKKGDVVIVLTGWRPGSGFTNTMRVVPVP
substance,measurement,setting,value
"pyruvate kinase (PK) M2 (PKM2) (mouse), P52480 1-531 (enzyme; other documents disagree on this pair)",stoichiometry N,[1],2 and 4
"pyruvate kinase (PK) M2 (PKM2), P14618 1-531 (enzyme; other documents disagree on this pair)",stoichiometry N,[2],2
